Test results: publication PMC3281933

Biological target: low density lipoprotein receptor-related protein 1 (LRP1) (human (endogenous in 1064Sk human skin fibroblasts))

CCN1/TNFα-induced apoptosis of human skin fibroblasts (CCN1 2 µg/ml, TNFα 10 ng/ml, 5 hrs) after pre-incubation with 1 µM recombinant RAP: 60%
B1: CCN1 (CYR61) (natural protein)
chain: TCPAACHCPLEAPKCAPGVGLVRDGCGCCKVCAKQLNEDCSKTQPCDHTKGLECNFGASSTALKGICRAQSEGRPCEYNSRIYQNGESFQPNCKHQCTCIDGAVGCIPLCPQELSLPNLGCPNPRLVKVTGQCCEEWVCDEDSIKDPMEDQDGLLGKELGFDASEVELTRNNELIAVGKGSSLKRLPVFGMEPRILYNPLQGQKCIVQTTSWSQCSKTCGTGISTRVTNDNPECRLVKETRICEVRPCGQPVYSSLKKGKKCSKTKKSPEPVRFTYAGCLSVKKYRPKYCGSCVDGRCCTPQLTRTVKMRFRCEDGETFSKNVMMIQSCKCNYNCPHANEAAFPFYRLFNDIHKFRD
